From patent US11078465B2, “Alcohol dehydrogenase mutant and application thereof in synthesis of diaryl chiral alcohols” (Jiangnan University, priority 2018, dated 2021)

Tests used:
Assay type in all cases: biochemical
[1] = molecular target: alcohol dehydrogenase KpADH, wild type (WT), SEQ ID No. 2 (Vanderwaltozyma polyspora, UniProt A7TM80); experiment: Kinetic analysis of alcohol dehydrogenase (CPMK reduction, NADPH absorption at 340 nm); design: unit not given here
Method: (§1) Adopting a total reaction system of 200 μL, including: 1.0 mM NADPH, 1.0 mM substrate CPMK and sodium phosphate buffer (PBS, 100 mM, pH 7.0), fully and evenly mixing, maintaining at 30° C. for 2 min, adding an appropriate amount of enzyme solution, and detecting the change in light absorption at 340 nm.
(§2) The enzyme activity was calculated by the following formula: Enzyme activity (U)=EW×V×10^3/(6220×I);
(§3) in the formula, EW is the change in absorbance at 340 nm in 1 min; V is the volume of a reaction solution in mL; 6220 is the molar extinction coefficient of NADPH in L/mol·cm); and 1 is the optical path distance in cm. One activity unit (U) corresponds to the amount of enzyme required to catalyze the oxidation of 1 μmol NADPH per minute under the above conditions.
(§4) A column used for purification was a nickel affinity column HisTrap FF crude, and purification was achieved through affinity chromatography using a histidine tag on recombinant protein. The nickel column was equilibrated with a solution A first, a crude enzyme solution was loaded, a penetrating peak was further eluted off using the solution A, and after equilibrium, a solution B (20 mM sodium phosphate, 500 mM NaCl, and 1000 mM imidazole, pH 7.4) was used for gradient elution to elute off the recombinant protein bound to the nickel column, so as to obtain the recombinant alcohol dehydrogenase mutant. The purified protein was subjected to activity measurement (CPMK as substrate, and NADPH as coenzyme) and SDS-PAGE analysis. […] The purified alcohol dehydrogenase protein was then replaced into a Tris-HCl (100 mM, pH 7.0) buffer using a Hi Trap Desalting column (GE Healthcare).
(§5) The activity of KpADH at different substrate concentrations and coenzyme concentrations was determined, and a double reciprocal curve was made based on the reciprocal of activity and substrate concentration to calculate kinetic parameters.

[2] = molecular target: alcohol dehydrogenase KpADH (SEQ ID No. 2) mutant F320W/S237A (Vanderwaltozyma polyspora, UniProt A7TM80, form not given/S237A); experiment: Kinetic analysis of alcohol dehydrogenase mutant (CPMK reduction, NADPH absorption at 340 nm); settings: substrate CPMK, pH 7.0, 30° C.
Method: as §1, §2, §3, §4, §5
(§6) Two mutants of S237A and S237C valuable for modification of asymmetric synthesis R- and S- are obtained by random mutation screening, and the two sites are used as templates for random mutation. […] It can be known by combining the data in Tables 2 and 3 that the 214 site of alcohol dehydrogenase is a site that is important for determining selectivity improvement and inversion.

[3] = molecular target: alcohol dehydrogenase KpADH (SEQ ID No. 2) mutant F320V/S237A (Vanderwaltozyma polyspora, UniProt A7TM80, form not given/S237A); experiment: as above; settings: substrate CPMK, pH 7.0, 30° C.
Method: as §1, §2, §3, §4, §5, §6

[4] = system: O=C(c1ccc(Cl)cc1)c1ccccn1; experiment: as above; settings: substrate CPMK, pH 7.0, 30° C.
Method: as §1, §2, §3, §4, §5, §6

[5] = system: O=C(c1ccc(Cl)cc1)c1ccccn1; experiment: Kinetic analysis of alcohol dehydrogenase (CPMK reduction, NADPH absorption at 340 nm); settings: other: WT, substrate CPMK, pH 7.0, 30° C.
Method: as §1, §2, §3, §4, §5

[6] = system: O=C(c1ccc(Cl)cc1)c1ccccn1; experiment: Kinetic analysis of alcohol dehydrogenase mutant (CPMK reduction, NADPH absorption at 340 nm); settings: other: E214G/S237C, substrate CPMK, pH 7.0, 30° C.

O=C(c1ccc(Cl)cc1)c1ccccn1 [CPMK, (4-chlorophenyl)-(pyridin-2-yl)-methanone]
Km [1]: 0.76 | Kcat [2]: 11.07 ± 0.25 s⁻¹ | Km [2]: 1660 ± 20 µM | Vmax [2]: 16.6 ± 0.37 µM/min/mg | Kcat [3]: 5.9 ± 0.09 s⁻¹ | Km [3]: 1150 ± 50 µM | Vmax [3]: 8.9 ± 0.78 µM/min/mg

alcohol dehydrogenase KpADH (SEQ ID No. 2) mutant A269C/S237C (Vanderwaltozyma polyspora DSM 70294; A269C/S237C)
Km ([4]; other: A269C/S237C): 1560 ± 20 µM | Vmax ([4]; other: A269C/S237C): 22.6 µM/min/mg | kcat ([4]; other: A269C/S237C): 15.4 ± 0.86 s⁻¹ | kcat/Km ([4]; other: A269C/S237C): 9900 ± 360 M⁻¹ s⁻¹

alcohol dehydrogenase KpADH (SEQ ID No. 2) mutant S237C (Vanderwaltozyma polyspora DSM 70294; S237C)
Km ([4]; other: S237C): 1010 ± 100 µM | Vmax ([4]; other: S237C): 20.9 µM/min/mg | kcat ([4]; other: S237C): 13.9 ± 0.99 s⁻¹ | kcat/Km ([4]; other: S237C): 13800 ± 250 M⁻¹ s⁻¹

alcohol dehydrogenase KpADH, wild type (WT), SEQ ID No. 2 (Vanderwaltozyma polyspora DSM 70294)
Km [5]: 760 ± 190 µM | Vmax [5]: 21.3 µM/min/mg | kcat [5]: 14.2 ± 1.16 s⁻¹ | kcat/Km [5]: 18700 ± 620 M⁻¹ s⁻¹

alcohol dehydrogenase KpADH (SEQ ID No. 2) mutant L60F/S237C (Vanderwaltozyma polyspora DSM 70294; L60F/S237C)
Km ([4]; other: L60F/S237C): 1120 ± 20 µM | Vmax ([4]; other: L60F/S237C): 12.6 µM/min/mg | kcat ([4]; other: L60F/S237C): 8.4 ± 0.23 s⁻¹ | kcat/Km ([4]; other: L60F/S237C): 7500 ± 690 M⁻¹ s⁻¹

alcohol dehydrogenase KpADH (SEQ ID No. 2) mutant S237A (Vanderwaltozyma polyspora DSM 70294; S237A)
Km ([4]; other: S237A): 580 ± 30 µM | Vmax ([4]; other: S237A): 36.5 µM/min/mg | kcat ([4]; other: S237A): 24.4 ± 1.26 s⁻¹ | kcat/Km ([4]; other: S237A): 42000 ± 2360 M⁻¹ s⁻¹

alcohol dehydrogenase KpADH (SEQ ID No. 2) mutant M12, E214G/S237C (Vanderwaltozyma polyspora DSM 70294; E214G/S237C)
Km [6]: 310 ± 20 µM | Vmax [6]: 9.54 µM/min/mg | kcat [6]: 6.3 ± 0.11 s⁻¹ | kcat/Km [6]: 22100 ± 1370 M⁻¹ s⁻¹

alcohol dehydrogenase KpADH (SEQ ID No. 2) mutant H249Y/S237C (Vanderwaltozyma polyspora DSM 70294; H249Y/S237C)
Km ([4]; other: H249Y/S237C): 980 ± 20 µM | Vmax ([4]; other: H249Y/S237C): 16.5 µM/min/mg | kcat ([4]; other: H249Y/S237C): 11 ± 0.83 s⁻¹ | kcat/Km ([4]; other: H249Y/S237C): 11200 ± 980 M⁻¹ s⁻¹
